Results reported in patent publication US20150330981A1 (published 2015).

Tests used:
[1] = target: T1, GST-PGC-1β (1-367 aa; GST-P5) (UniProt Q8VHJ7)
T1 sequence: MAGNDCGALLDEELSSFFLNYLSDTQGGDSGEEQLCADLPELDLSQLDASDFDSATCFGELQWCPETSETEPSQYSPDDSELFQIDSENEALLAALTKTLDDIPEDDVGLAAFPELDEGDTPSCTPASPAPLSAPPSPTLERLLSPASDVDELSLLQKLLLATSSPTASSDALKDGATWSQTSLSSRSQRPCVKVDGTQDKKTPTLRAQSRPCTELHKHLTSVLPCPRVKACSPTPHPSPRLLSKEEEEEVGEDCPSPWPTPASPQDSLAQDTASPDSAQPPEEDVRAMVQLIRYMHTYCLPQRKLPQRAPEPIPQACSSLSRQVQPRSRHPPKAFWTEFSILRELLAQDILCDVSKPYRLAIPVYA

[2] = target: T2, in vitro transcribed/translated PGC-1β (FLAG-PGC), Q8VHJ7
T2 chain: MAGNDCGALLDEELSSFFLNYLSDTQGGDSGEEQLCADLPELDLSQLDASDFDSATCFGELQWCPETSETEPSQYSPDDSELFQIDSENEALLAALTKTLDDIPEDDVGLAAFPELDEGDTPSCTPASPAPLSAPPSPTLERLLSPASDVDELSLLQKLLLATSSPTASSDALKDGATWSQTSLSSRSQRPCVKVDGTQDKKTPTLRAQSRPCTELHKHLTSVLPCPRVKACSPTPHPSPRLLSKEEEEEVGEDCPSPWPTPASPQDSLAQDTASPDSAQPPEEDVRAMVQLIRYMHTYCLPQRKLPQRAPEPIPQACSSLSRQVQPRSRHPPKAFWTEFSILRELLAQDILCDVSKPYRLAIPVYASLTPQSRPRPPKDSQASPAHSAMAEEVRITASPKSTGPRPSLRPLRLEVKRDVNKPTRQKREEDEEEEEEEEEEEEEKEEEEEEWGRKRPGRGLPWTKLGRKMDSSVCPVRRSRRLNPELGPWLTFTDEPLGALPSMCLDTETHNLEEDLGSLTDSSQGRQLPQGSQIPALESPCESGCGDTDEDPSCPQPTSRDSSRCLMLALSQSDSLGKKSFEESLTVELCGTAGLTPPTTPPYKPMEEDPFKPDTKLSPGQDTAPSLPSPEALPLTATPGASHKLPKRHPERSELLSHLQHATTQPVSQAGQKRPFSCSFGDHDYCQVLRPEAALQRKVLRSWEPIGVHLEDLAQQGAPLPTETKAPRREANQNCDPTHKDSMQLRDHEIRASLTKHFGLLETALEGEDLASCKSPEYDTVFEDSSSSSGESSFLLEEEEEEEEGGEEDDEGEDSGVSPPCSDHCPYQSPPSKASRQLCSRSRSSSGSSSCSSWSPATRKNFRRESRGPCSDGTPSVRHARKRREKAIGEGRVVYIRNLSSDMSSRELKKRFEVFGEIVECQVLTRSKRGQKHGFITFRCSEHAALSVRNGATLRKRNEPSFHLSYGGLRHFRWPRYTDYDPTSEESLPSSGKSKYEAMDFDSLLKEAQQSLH

[3] = target: T3, HA PGC-1β (full-length mouse PGC-1β with HA tag) (mouse, UniProt Q8VHJ7 1-1014); experiment: co-immunoprecipitation with anti-FLAG from HEK-293T extract, anti-HA Western blot
T3 construct: also called mPGC-1β; pcDNA3 HAPGC-1β; not shown: HA tag from pcDNA3 HA vector
T3 sequence (looked up): T2 chain
Procedure: Whether synoviolin and PGC-1β actually form a complex in in vivo was investigated. Specifically, a plasmid for expressing PGC-1β with HA tag (HA PGC-1β) and a plasmid for expressing synoviolin with FLAG tag (SYVN1/FLAG) or the modified synoviolin with FLAG tag (SYVN1ΔSyU/FLAG) were transfected in HEK-293T cells. Whole cell extract from the HEK-293T cells transfected with the expression plasmids was prepared to immunoprecipitate using anti-FLAG antibody. Proteins bound to the anti-FLAG antibody were eluted and separated by SDS-PAGE, and Western blot was performed using anti-HA antibody and the anti-FLAG antibody.

[4] = target: T3, HA PGC-1β (full-length mouse PGC-1β …); experiment: cell-based or functional assay
[5] = target: T4, HA PGC-1β (full-length mouse PGC-1β with HA tag), Q8VHJ7
T4 chain: T2 chain

MBP-SYVN1 ΔTM-His was tested. Which “in vitro ubiquitination assay (E1-His, UbcH5C, HA-ubiquitin; GST capture, Western blot)” value [1] did it give?
The value was “synoviolin (SYVN1) has directly ubiquitinated PGC-1β”.

B1: modified synoviolin fused to GST (syno(236-338)) (protein)
chain: KVHTFPLFAIRPMYLAMRQFKKAVTDAIMSRRAIRNMNTLYPDATPEELQAMDNVCIICREEMVTGAKRLPCNHIFHTSCLRSWFQRQQTCPTCRMDVLRASL
B1 was tested. Which “in vitro ubiquitination assay” value [2] did it give?
Its value is “polyubiquitinated PGC-1β was detected under the condition with the presence of all of ATP, PK-His-HA-Ub, E1-His, UBE2G2-His, and syno(236-338)”.

B2: modified synoviolin with FLAG tag (SYVN1ΔSyU/FLAG) (enzyme, UniProt Q86TM6 1-617, looked up)
chain: MFRTAVMMAASLALTGAVVAHAYYLKHQFYPTVVYLTKSSPSMAVLYIQAFVLVFLLGKVMGKVFFGQLRAAEMEHLLERSWYAVTETCLAFTVFRDDFSPRFVALFTLLLFLKCFHWLAEDRVDFMERSPNISWLFHCRIVSLMFLLGILDFLFVSHAYHSILTRGASVQLVFGFEYAILMTMVLTIFIKYVLHSVDLQSENPWDNKAVYMLYTELFTGFIKVLLYMAFMTIMINMNTLYPDATPEELQAMDNVCIICREEMVTGAKRLPCNHIFHTSCLRSWFQRQQTCPTCRMDVLRASLPAQSPPPPEPADQGPPPAPHPPPLLPQPPNFPQGLLPPFPPGMFPLWPPMGPFPPVPPPPSSGEAVAPPSTSAAALSRPSGAATTTAAGTSATAASATASGPGSGSAPEAGPAPGFPFPPPWMGMPLPPPFAFPPMPVPPAGFAGLTPEELRALEGHERQHLEARLQSLRNIHTLLDAAMLQINQYLTVLASLGPPRPATSVNSTEETATTVVAAASSTSIPSSEATTPTPGASPPAPEMERPPAPESVGTEEMPEDGEPDAAELRRRRLQKLESPVAH
notes: Deletion construct expressed in cells; also called synoviolin ΔSyU/FLAG; Synoviolin ASyU/FLAG; not shown: FLAG tag
Does B2 bind [3]?
Result: no binding

What about the “half-life of PGC-1β in cells (cycloheximide chase, Western blot)” value [4] of the same molecule?
The value was 3.6 h.

What about the “half-life of PGC-1β (cycloheximide chase, MEF Syno-/-)” value [5] of the same molecule?
Its value is “SYVN1 ΔSyU has not so promoted degradation of PGC-1β”.
